Results taken from the supplement of paper PMC10567573.

B1: FAM107A (parent)
chain: LQRVLEHRRRNQLIKKKKEELEAK

Variants of: B1
Assay: protein stability index of a GFP-peptide fusion (GPS, HEK-293T) (PSI 1-6); higher = more stable
Settings: c terminus: a fixed tail appended
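Also: lentivirally expressed fusions sorted by FACS into six bins by GFP to DsRed ratio, PSI derived from sequencing read proportions per bin multiplied by bin number.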

Row | Variant | protein stability index
1 | LQRVLEHRRRNQMIKKKKEELEAK [L13M] | 3.83
2 | LQRVLEHRRRNQDIKKKKEELEAK [L13D] | 3.29
3 | LQRVLEHRRRNQVIKKKKEELEAK [L13V] | 3.08
4 | LQRVLEHRRRNQKIKKKKEELEAK [L13K] | 3.43
5 | LQRVLEHRRRNQQIKKKKEELEAK [L13Q] | 3.73
6 | LQRVLEHRRRNQGIKKKKEELEAK [L13G] | 4.31
7 | LQRVLEHRRRNQFIKKKKEELEAK [L13F] | 3.83
8 | LQRVLEHRRRNQSIKKKKEELEAK [L13S] | 3.72
9 | LQRVLEHRRRNQAIKKKKEELEAK [L13A] | 3.51
10 | LQRVLEHRRRNQTIKKKKEELEAK [L13T] | 3.32
11 | LQRVLEHRRRNQIIKKKKEELEAK [L13I] | 3.76
12 | LQRVLEHRRRNQYIKKKKEELEAK [L13Y] | 3.37
13 | LQRVLEHRRRNQNIKKKKEELEAK [L13N] | 3.6
14 | LQRVLEHRRRNQEIKKKKEELEAK [L13E] | 4.54
15 | LQRVLEHRRRNQCIKKKKEELEAK [L13C] | 3.3
16 | LQRVLEHRRRNQHIKKKKEELEAK [L13H] | 4.18
17 | LQRVLEHRRRNQPIKKKKEELEAK [L13P] | 4.07
18 | LQRVLEHRRRNQLIKDKKEELEAK [K16D] | 4.44
19 | LQRVLEHRRRNQLIKAKKEELEAK [K16A] | 4.15
20 | LQRVLEHRRRNQLIKCKKEELEAK [K16C] | 3.26
21 | LQRVLEHRRRNQLIKEKKEELEAK [K16E] | 3.94
22 | LQRVLEHRRRHQLIKKKKEELEAK [N11H] | 3.23
23 | LQRVLEHRRRGQLIKKKKEELEAK [N11G] | 3.57
24 | LQRVLEHRRRKQLIKKKKEELEAK [N11K] | 3.62

Row | Variant | protein stability index
25 | LQRVLEHRRRLQLIKKKKEELEAK [N11L] | 2.65
26 | LQRVLEHRRRIQLIKKKKEELEAK [N11I] | 2.97
27 | LQRVLEHRRRYQLIKKKKEELEAK [N11Y] | 2.97
28 | LQRVLEHRRRFQLIKKKKEELEAK [N11F] | 2.72
29 | LQRVLEHRRRVQLIKKKKEELEAK [N11V] | 3.25
30 | LQRVLEHRRRDQLIKKKKEELEAK [N11D] | 3.56
31 | LQRVLEHRRRTQLIKKKKEELEAK [N11T] | 3.38
32 | LQRVLEHRRRSQLIKKKKEELEAK [N11S] | 3.6
33 | LQRVLEHRRRCQLIKKKKEELEAK [N11C] | 2.83
34 | LQRVLEHRRRMQLIKKKKEELEAK [N11M] | 3.4
35 | LQRVLEHRRRPQLIKKKKEELEAK [N11P] | 3.24
36 | LQRVLEHRRRWQLIKKKKEELEAK [N11W] | 1.93
37 | LQRVLEHRRREQLIKKKKEELEAK [N11E] | 4.16
38 | LQRVLEHRRRQQLIKKKKEELEAK [N11Q] | 3.09
39 | LQRVLEHRRRAQLIKKKKEELEAK [N11A] | 2.24
40 | LQRVLEHRRRNKLIKKKKEELEAK [Q12K] | 4
41 | LQRVLEHRRRNNLIKKKKEELEAK [Q12N] | 3.1
42 | LQRVLEHRRRNVLIKKKKEELEAK [Q12V] | 3.45
43 | LQRVLEHRRRNTLIKKKKEELEAK [Q12T] | 3.66
44 | LQRVLEHRRRNRLIKKKKEELEAK [Q12R] | 4.07
45 | LQRVLEHRRRNFLIKKKKEELEAK [Q12F] | 2.66
46 | LQRVLEHRRRNILIKKKKEELEAK [Q12I] | 3.74
47 | LQRVLEHRRRNGLIKKKKEELEAK [Q12G] | 2.85
48 | LQRVLEHRRRNYLIKKKKEELEAK [Q12Y] | 2.8

Row | Variant | protein stability index
49 | LQRVLEHRRRNPLIKKKKEELEAK [Q12P] | 4.12
50 | LQRVLEHRRRNALIKKKKEELEAK [Q12A] | 4.05
51 | LQRVLEHRRRNDLIKKKKEELEAK [Q12D] | 3.74
52 | LQRVLEHRRRNLLIKKKKEELEAK [Q12L] | 2.2
53 | LQRVLEHRRRNELIKKKKEELEAK [Q12E] | 4.11
54 | LQRVLEHRRRNMLIKKKKEELEAK [Q12M] | 3.45
55 | LQRVLEHRRRNHLIKKKKEELEAK [Q12H] | 3.5
56 | LQRVLEHRRRNSLIKKKKEELEAK [Q12S] | 3.11
57 | LQRVLEHRRRNWLIKKKKEELEAK [Q12W] | 1.5
58 | LQRVLEHRRSNQLIKKKKEELEAK [R10S] | 3.95
59 | LQRVLEHRRYNQLIKKKKEELEAK [R10Y] | 4.04
60 | LQRVLEHRRTNQLIKKKKEELEAK [R10T] | 4.57
61 | LQRVLEHRRWNQLIKKKKEELEAK [R10W] | 3.94
62 | LQRVLEHRRVNQLIKKKKEELEAK [R10V] | 3.95
63 | LQRVLEHRRPNQLIKKKKEELEAK [R10P] | 4.23
64 | LQRVLEHRRRNQLIQKKKEELEAK [K15Q] | 3.7
65 | LQRVLEHRRRNQLIYKKKEELEAK [K15Y] | 3.51
66 | LQRVLEHRRRNQLIPKKKEELEAK [K15P] | 4.18
67 | LQRVLEHRRRNQLIEKKKEELEAK [K15E] | 4.74
68 | LQRVLEHRRRNQLICKKKEELEAK [K15C] | 3.52
69 | LQRVLEHRRRNQLIIKKKEELEAK [K15I] | 3.24
70 | LQRVLEHRRRNQLILKKKEELEAK [K15L] | 3.84
71 | LQRVLEHRRRNQLIAKKKEELEAK [K15A] | 4.16
72 | LQRVLEHRRRNQLIGKKKEELEAK [K15G] | 4.49

Row | Variant | protein stability index
73 | LQRVLEHRRRNQLIRKKKEELEAK [K15R] | 3.34
74 | LQRVLEHRRRNQLISKKKEELEAK [K15S] | 3.86
75 | LQRVLEHRRRNQLINKKKEELEAK [K15N] | 4
76 | LQRVLEHRRRNQLIDKKKEELEAK [K15D] | 3.61
77 | LQRVLEHRRRNQLITKKKEELEAK [K15T] | 3.87
78 | LQRVLEHRRRNQLIMKKKEELEAK [K15M] | 3.98
79 | LQRVLEHRRRNQLIHKKKEELEAK [K15H] | 4.23
80 | LQRVLEHRRRNQLVKKKKEELEAK [I14V] | 4.25
81 | LQRVLEHRRRNQLEKKKKEELEAK [I14E] | 4.18
82 | LQRVLEHRRRNQLQKKKKEELEAK [I14Q] | 3.62
83 | LQRVLEHRRRNQLLKKKKEELEAK [I14L] | 3.24
84 | LQRVLEHRRRNQLRKKKKEELEAK [I14R] | 3.66
85 | LQRVLEHRRRNQLYKKKKEELEAK [I14Y] | 3.28
86 | LQRVLEHRRRNQLTKKKKEELEAK [I14T] | 3.71
87 | LQRVLEHRRRNQLDKKKKEELEAK [I14D] | 4.39
88 | LQRVLEHRRRNQLCKKKKEELEAK [I14C] | 3.42
89 | LQRVLEHRRRNQLFKKKKEELEAK [I14F] | 4.1
90 | LQRVLEHRRRNQLMKKKKEELEAK [I14M] | 4.54
91 | LQRVLEHRRRNQLPKKKKEELEAK [I14P] | 3.31
92 | LQRVLEHRRRNQLSKKKKEELEAK [I14S] | 3.92
93 | LQRVLEHRRRNQLNKKKKEELEAK [I14N] | 3.74
94 | LQRVLEHRRRNQLHKKKKEELEAK [I14H] | 3.44
